What is called Kd is a measure of binding affinity in units of concentration. By koff is commonly meant a measure of how fast the partners let go of each other. One may read the kon as the second-order rate constant of association.

The source of these data is US20250011456A1 (VILLANELLE LIFE SCIENCE, published 2025).

The assay has as its target T1, Recombinant Human CD14/His Protein (B294801) (human, UniProt P08571 20-352, limits assumed).
T1 construct: Bought His-tagged recombinant human CD14; also called recombinant human CD14 antigen; CD14 antigen; not shown: histidine tag
T1 sequence (looked up): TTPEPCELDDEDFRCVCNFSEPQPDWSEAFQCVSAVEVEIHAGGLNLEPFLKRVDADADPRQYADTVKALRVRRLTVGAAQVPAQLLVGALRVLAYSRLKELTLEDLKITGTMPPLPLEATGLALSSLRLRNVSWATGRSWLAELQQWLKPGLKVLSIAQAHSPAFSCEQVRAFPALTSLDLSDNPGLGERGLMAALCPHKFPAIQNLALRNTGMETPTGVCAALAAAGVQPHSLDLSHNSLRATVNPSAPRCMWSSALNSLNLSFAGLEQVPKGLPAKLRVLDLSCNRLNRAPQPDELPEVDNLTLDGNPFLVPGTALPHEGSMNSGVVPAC
The assay is described as follows: SPR (Biacore 8K), antibody captured on Protein A chip, CD14-His analyte 0.78125-25 nM, 1:1 binding. How it is done: The Biacore 8K platform was used to test the kinetic and affinity properties of the antibody. The operation was carried out according to the system instructions and indications.
15 humanized antibodies (numbered D6DD3D002-D6DD3D0016) and 1 mouse antibody (number D6DD3D001) were tested. […] The capture concentration was 1 μg/mL. In Table 8-3, the change factor is the ratio of the equilibrium dissociation constant KD of the humanized to mouse antibody, and reflects the change in affinity after humanization.
(Surface plasmon resonance follows binding to a sensor surface in real time, without labels.)

B1: Antibody No. D6DD3D003 (HU1127-hVH2/hVL1) (antibody, human IgG1, kappa)
heavy: not shown
light: EIVLTQSPATLSLSPGERATLSCRASESVDSYVNSFLHWYQQKPGQAPRLLIYRASNLQSGIPARFSGSGSRTDFTLTISSLEPEDVAVYYCQQSNEDPYTFGQGTKLEIKRTVAAPSVFIFPPSDEQLKSGTASVVCLLNNFYPREAKVQWKVDNALQSGNSQESVTEQDSKDSTYSLSSTLTLSKADYEKHKVYACEVTHQGLSSPVTKSFNRGEC
notes: Humanized IgG1 (hFc)
Consider B1, for which the “Change Factor (KD relative to mouse antibody D6DD3D001)” value came out at 3.34, the Kd stood at 1.62 nM, the koff came to 0.00295 s⁻¹ and the kon amounted to 1.82e+06 M⁻¹ s⁻¹.

B2: Antibody No. D6DD3D005 (HU1127-hVH4/hVL1) (antibody, human IgG1, kappa)
heavy: not shown
light: EIVLTQSPATLSLSPGERATLSCRASESVDSYVNSFLHWYQQKPGQAPRLLIYRASNLQSGIPARFSGSGSRTDFTLTISSLEPEDVAVYYCQQSNEDPYTFGQGTKLEIKRTVAAPSVFIFPPSDEQLKSGTASVVCLLNNFYPREAKVQWKVDNALQSGNSQESVTEQDSKDSTYSLSSTLTLSKADYEKHKVYACEVTHQGLSSPVTKSFNRGEC
notes: Humanized IgG1 (hFc)
For the molecule B2, the “Change Factor (KD relative to mouse antibody D6DD3D001)” value worked out at 1.09, the Kd was determined as 0.529 nM, the koff amounted to 0.000798 s⁻¹ and the on-rate (kon) is 1.51e+06 M⁻¹ s⁻¹.

B3: Antibody No. D6DD3D002 (HU1127-hVH1/hVL1) (antibody, human IgG1, kappa, V domains shown)
VH: QVQLQESGPGLVKPSQTLSLTCTVSGGSISSDSAWNWIRQHPGKGLEWIGYISYSGSTSYNPSLKSRVTISRDTSKNQFSLKLSSVTAADTAVYYCVRGLRFAYWGQGTLVTVSS
VL: EIVLTQSPATLSLSPGERATLSCRASESVDSYVNSFLHWYQQKPGQAPRLLIYRASNLQSGIPARFSGSGSRTDFTLTISSLEPEDVAVYYCQQSNEDPYTFGQGTKLEIKR
notes: Humanized IgG1 (hFc)
In the case of B3, the “Change Factor (KD relative to mouse antibody D6DD3D001)” value came to 3.57, the Kd turned out to be 1.73 nM, the off-rate (koff) is 0.00292 s⁻¹ and the kon was 1.69e+06 M⁻¹ s⁻¹.

B4: Antibody No. D6DD3D006 (HU1127-hVH5/hVL1) (antibody, human IgG1, kappa)
heavy: not shown
light: EIVLTQSPATLSLSPGERATLSCRASESVDSYVNSFLHWYQQKPGQAPRLLIYRASNLQSGIPARFSGSGSRTDFTLTISSLEPEDVAVYYCQQSNEDPYTFGQGTKLEIKRTVAAPSVFIFPPSDEQLKSGTASVVCLLNNFYPREAKVQWKVDNALQSGNSQESVTEQDSKDSTYSLSSTLTLSKADYEKHKVYACEVTHQGLSSPVTKSFNRGEC
notes: Humanized IgG1 (hFc)
Turning to B4, the “Change Factor (KD relative to mouse antibody D6DD3D001)” value worked out at 1.24, the dissociation constant (Kd) was 0.602 nM, the koff was determined as 0.000862 s⁻¹ and the kon was found to be 1.43e+06 M⁻¹ s⁻¹.

B5: Antibody No. D6DD3D004 (HU1127-hVH3/hVL1) (antibody, human IgG1, kappa)
heavy: not shown
light: EIVLTQSPATLSLSPGERATLSCRASESVDSYVNSFLHWYQQKPGQAPRLLIYRASNLQSGIPARFSGSGSRTDFTLTISSLEPEDVAVYYCQQSNEDPYTFGQGTKLEIKRTVAAPSVFIFPPSDEQLKSGTASVVCLLNNFYPREAKVQWKVDNALQSGNSQESVTEQDSKDSTYSLSSTLTLSKADYEKHKVYACEVTHQGLSSPVTKSFNRGEC
notes: Humanized IgG1 (hFc)
In the case of B5, the “Change Factor (KD relative to mouse antibody D6DD3D001)” value is 4.1, the dissociation constant Kd came out at 1.99 nM, the koff was 0.00326 s⁻¹ and the kon was found to be 1.64e+06 M⁻¹ s⁻¹.

B6: Antibody No. D6DD3D008 (HU1127-hVH2/hVL2) (antibody, human IgG1, kappa)
heavy: not shown
light: DIVLTQSPDSLAVSLGERATINCRASESVDSYVNSFLHWYQQKPGQPPKLLIYRASNLQSGVPDRFSGSGSRTDFTLTISSLQAEDVAVYYCQQSNEDPYTFGQGTKLEIKRTVAAPSVFIFPPSDEQLKSGTASVVCLLNNFYPREAKVQWKVDNALQSGNSQESVTEQDSKDSTYSLSSTLTLSKADYEKHKVYACEVTHQGLSSPVTKSFNRGEC
notes: Humanized IgG1 (hFc)
Take B6: the “Change Factor (KD relative to mouse antibody D6DD3D001)” value turned out to be 3.24, the Kd came out at 1.57 nM, the koff is 0.00329 s⁻¹ and the on-rate constant (kon) was 2.09e+06 M⁻¹ s⁻¹.

B7: Antibody No. D6DD3D010 (HU1127-hVH4/hVL2) (antibody, human IgG1, kappa)
heavy: not shown
light: DIVLTQSPDSLAVSLGERATINCRASESVDSYVNSFLHWYQQKPGQPPKLLIYRASNLQSGVPDRFSGSGSRTDFTLTISSLQAEDVAVYYCQQSNEDPYTFGQGTKLEIKRTVAAPSVFIFPPSDEQLKSGTASVVCLLNNFYPREAKVQWKVDNALQSGNSQESVTEQDSKDSTYSLSSTLTLSKADYEKHKVYACEVTHQGLSSPVTKSFNRGEC
notes: Humanized IgG1 (hFc)
As for B7, the “Change Factor (KD relative to mouse antibody D6DD3D001)” value was 1.14, the equilibrium dissociation constant (Kd) came out at 0.555 nM, the koff turned out to be 0.00105 s⁻¹ and the kon amounted to 1.9e+06 M⁻¹ s⁻¹.

B8: Antibody No. D6DD3D009 (HU1127-hVH3/hVL2) (antibody, human IgG1, kappa)
heavy: not shown
light: DIVLTQSPDSLAVSLGERATINCRASESVDSYVNSFLHWYQQKPGQPPKLLIYRASNLQSGVPDRFSGSGSRTDFTLTISSLQAEDVAVYYCQQSNEDPYTFGQGTKLEIKRTVAAPSVFIFPPSDEQLKSGTASVVCLLNNFYPREAKVQWKVDNALQSGNSQESVTEQDSKDSTYSLSSTLTLSKADYEKHKVYACEVTHQGLSSPVTKSFNRGEC
notes: Humanized IgG1 (hFc)
Turning to B8, the “Change Factor (KD relative to mouse antibody D6DD3D001)” value is 3.9, the dissociation constant Kd worked out at 1.89 nM, the off-rate constant (koff) turned out to be 0.00379 s⁻¹ and the kon was determined as 2.01e+06 M⁻¹ s⁻¹.

B9: Antibody No. D6DD3D007 (HU1127-hVH1/hVL2) (antibody, human IgG1, kappa, V domains shown)
VH: QVQLQESGPGLVKPSQTLSLTCTVSGGSISSDSAWNWIRQHPGKGLEWIGYISYSGSTSYNPSLKSRVTISRDTSKNQFSLKLSSVTAADTAVYYCVRGLRFAYWGQGTLVTVSS
VL: DIVLTQSPDSLAVSLGERATINCRASESVDSYVNSFLHWYQQKPGQPPKLLIYRASNLQSGVPDRFSGSGSRTDFTLTISSLQAEDVAVYYCQQSNEDPYTFGQGTKLEIKR
notes: Humanized IgG1 (hFc)
For the molecule B9, the “Change Factor (KD relative to mouse antibody D6DD3D001)” value was determined as 3.34, the Kd was determined as 1.62 nM, the koff came to 0.00342 s⁻¹ and the kon was 2.11e+06 M⁻¹ s⁻¹.

B10: Antibody No. D6DD3D011 (HU1127-hVH5/hVL2) (antibody, human IgG1, kappa)
heavy: not shown
light: DIVLTQSPDSLAVSLGERATINCRASESVDSYVNSFLHWYQQKPGQPPKLLIYRASNLQSGVPDRFSGSGSRTDFTLTISSLQAEDVAVYYCQQSNEDPYTFGQGTKLEIKRTVAAPSVFIFPPSDEQLKSGTASVVCLLNNFYPREAKVQWKVDNALQSGNSQESVTEQDSKDSTYSLSSTLTLSKADYEKHKVYACEVTHQGLSSPVTKSFNRGEC
notes: Humanized IgG1 (hFc)
Consider B10, for which the “Change Factor (KD relative to mouse antibody D6DD3D001)” value came out at 1.32, the dissociation constant Kd came out at 0.639 nM, the koff came out at 0.00109 s⁻¹ and the on-rate (kon) was 1.71e+06 M⁻¹ s⁻¹.

B11: Antibody No. D6DD3D013 (HU1127-hVH2/hVL3) (antibody, human IgG1, kappa)
heavy: not shown
light: DIQLTQSPSSLSASVGDRVTITCRASESVDSYVNSFLHWYQQKPGKAPKLLIYRASNLQSGVPSRFSGSGSRTDFTLTISSLQPEDVATYYCQQSNEDPYTFGQGTKLEIKRTVAAPSVFIFPPSDEQLKSGTASVVCLLNNFYPREAKVQWKVDNALQSGNSQESVTEQDSKDSTYSLSSTLTLSKADYEKHKVYACEVTHQGLSSPVTKSFNRGEC
notes: Humanized IgG1 (hFc)
With B11, the “Change Factor (KD relative to mouse antibody D6DD3D001)” value was determined as 3.32, the dissociation constant (Kd) came out at 1.61 nM, the dissociation rate constant (koff) is 0.00282 s⁻¹ and the kon was 1.76e+06 M⁻¹ s⁻¹.

B12: Antibody No. D6DD3D014 (HU1127-hVH3/hVL3) (antibody, human IgG1, kappa)
heavy: not shown
light: DIQLTQSPSSLSASVGDRVTITCRASESVDSYVNSFLHWYQQKPGKAPKLLIYRASNLQSGVPSRFSGSGSRTDFTLTISSLQPEDVATYYCQQSNEDPYTFGQGTKLEIKRTVAAPSVFIFPPSDEQLKSGTASVVCLLNNFYPREAKVQWKVDNALQSGNSQESVTEQDSKDSTYSLSSTLTLSKADYEKHKVYACEVTHQGLSSPVTKSFNRGEC
notes: Humanized IgG1 (hFc); Parent of the PTM-site-removed antibodies MPDDAD001-005
For the molecule B12, the “Change Factor (KD relative to mouse antibody D6DD3D001)” value turned out to be 3.71, the dissociation constant Kd stood at 1.8 nM, the off-rate (koff) turned out to be 0.00318 s⁻¹ and the on-rate (kon) worked out at 1.77e+06 M⁻¹ s⁻¹.

B13: Antibody No. D6DD3D016 (HU1127-hVH5/hVL3) (antibody, human IgG1, kappa)
heavy: not shown
light: DIQLTQSPSSLSASVGDRVTITCRASESVDSYVNSFLHWYQQKPGKAPKLLIYRASNLQSGVPSRFSGSGSRTDFTLTISSLQPEDVATYYCQQSNEDPYTFGQGTKLEIKRTVAAPSVFIFPPSDEQLKSGTASVVCLLNNFYPREAKVQWKVDNALQSGNSQESVTEQDSKDSTYSLSSTLTLSKADYEKHKVYACEVTHQGLSSPVTKSFNRGEC
notes: Humanized IgG1 (hFc)
Regarding B13, the “Change Factor (KD relative to mouse antibody D6DD3D001)” value amounted to 1.39, the Kd worked out at 0.672 nM, the koff amounted to 0.000904 s⁻¹ and the kon worked out at 1.35e+06 M⁻¹ s⁻¹.

B14: Antibody No. D6DD3D012 (HU1127-hVH1/hVL3) (antibody, human IgG1, kappa, V domains shown)
VH: QVQLQESGPGLVKPSQTLSLTCTVSGGSISSDSAWNWIRQHPGKGLEWIGYISYSGSTSYNPSLKSRVTISRDTSKNQFSLKLSSVTAADTAVYYCVRGLRFAYWGQGTLVTVSS
VL: DIQLTQSPSSLSASVGDRVTITCRASESVDSYVNSFLHWYQQKPGKAPKLLIYRASNLQSGVPSRFSGSGSRTDFTLTISSLQPEDVATYYCQQSNEDPYTFGQGTKLEIKR
notes: Humanized IgG1 (hFc)
Turning to B14, the “Change Factor (KD relative to mouse antibody D6DD3D001)” value came out at 3.69, the Kd came to 1.79 nM, the koff came to 0.00293 s⁻¹ and the kon was 1.64e+06 M⁻¹ s⁻¹.

B15: Antibody No. D6DD3D015 (HU1127-hVH4/hVL3) (antibody, human IgG1, kappa)
heavy: not shown
light: DIQLTQSPSSLSASVGDRVTITCRASESVDSYVNSFLHWYQQKPGKAPKLLIYRASNLQSGVPSRFSGSGSRTDFTLTISSLQPEDVATYYCQQSNEDPYTFGQGTKLEIKRTVAAPSVFIFPPSDEQLKSGTASVVCLLNNFYPREAKVQWKVDNALQSGNSQESVTEQDSKDSTYSLSSTLTLSKADYEKHKVYACEVTHQGLSSPVTKSFNRGEC
notes: Humanized IgG1 (hFc)
For the molecule B15, the “Change Factor (KD relative to mouse antibody D6DD3D001)” value was found to be 1.1, the Kd was 0.532 nM, the koff came to 0.000843 s⁻¹ and the kon worked out at 1.59e+06 M⁻¹ s⁻¹.
